Where a chain is given by its changes, count along the chain named.
B1: VRDN-03115 (antibody, V domains shown)
VH: QVQLVESGGGVVQPGRSLRLSCAASGFTFSDHYMDWVRQAPGKGLEWVAIIWFDGSSKYYPGSVKGRFTISRDNSKNTLYLQMNSLRAEDTAVYYCARELGRRYFDIWGRGTLVTVSS
VL: EIVMTQSPATLSVSPGERATLSCRASQGVSSYLAWYQQKPGQAPRLLIYGASTRATGIPARFSGSGSGTEFTLTISSLQSEDFAVYYCQQRSRWPPWTFGQGTKLEIK
B2: VRDN-03038 (antibody, V domains shown)
VH: QVELVESGGGVVQPGRSQRLSCAASGFTFSSYGMHWVRQAPGKGLEWVAIIWFDGSSTYYADSVRGRFTISRDNSKNTLYLQMNSLRAEDTAVYFCARELGRRYFDLWGRGTLVSVSS
VL: EIVLTQSPATLSLSPGERATLSCHASQSVSSYLAWYQQKPGQAPRLLIYDASKRATGIPARFSGSGSGTDFTLTISSLEPEDFAVYYCQQRSKWPPWTFGQGTKVESK
B3: VRDN-03045 (antibody, V domains shown)
VH: B2 VH
VL: B2 VL with H24R, S31H
B4: VRDN-03046 (antibody, V domains shown)
VH: B2 VH
VL: B2 VL with H24R, Y32H
B5: VRDN-03044 (antibody, V domains shown)
VH: B2 VH
VL: B2 VL with H24R, S30H
B6: VRDN-03039 (antibody, V domains shown)
VH: B2 VH
VL: B2 VL with H24R, A25H
B7: VRDN-03042 (antibody, V domains shown)
VH: B2 VH
VL: B2 VL with H24R, S28H
B8: VRDN-03041 (antibody, V domains shown)
VH: B2 VH
VL: B2 VL with H24R, Q27H
B9: VRDN-03043 (antibody, V domains shown)
VH: B2 VH
VL: B2 VL with H24R, V29H
B10: VRDN-03126 (antibody, V domains shown)
VH: B1 VH with Q1E, S30D, H32Y, Y33T, D35H, I50V, F53Y, P61A, G62D, R110Q
VL: B1 VL
B11: VRDN-03124 (antibody, V domains shown)
VH: B1 VH with Q1E, S30D, H32Y, Y33T, D35H, P61A, G62D, R110Q
VL: B1 VL
B12: VRDN-03130 (antibody, V domains shown)
VH: B1 VH with Q1E, D31S, H32Y, Y33S, D35H, P61V, G62D, G66S, R110Q
VL: B1 VL with Y32N, Q101G
B13: VRDN-03120 (antibody, V domains shown)
VH: B1 VH with Q1E, D31S, H32Y, Y33S, D35H, I50V, F53Y, P61A, G62D, R110Q
VL: B1 VL
B14: VRDN-03128 (antibody, V domains shown)
VH: B1 VH with Q1E, H32Y, Y33T, D35H
VL: B1 VL with Y32N, Q101G
B15: VRDN-03132 (antibody, V domains shown)
VH: B1 VH with Q1E, D31S, H32Y, Y33S, D35H, I50V, F53Y, P61A, G62D, R110Q
VL: B1 VL with Y32N, Q101G
B16: VRDN-03116 (antibody, V domains shown)
VH: B1 VH with Q1E, H32Y, Y33T, D35H
VL: B1 VL
B17: VRDN-03121 (antibody, V domains shown)
VH: B1 VH with Q1E, D31S, H32Y, Y33S, D35H, I50V, F53Y, P61A, G62D, G66S
VL: B1 VL
B18: VRDN-03119 (antibody, V domains shown)
VH: B1 VH with Q1E, D31S, H32Y, Y33S, D35H, S57E, P61V, G62D, G66S, R110Q
VL: B1 VL
B19: VRDN-03127 (antibody, V domains shown)
VH: B1 VH with Q1E, H32Y, Y33T, D35H, P61A, G62D, G66S, R110Q
VL: B1 VL
B20: VRDN-03139 (antibody, V domains shown)
VH: B1 VH with Q1E, H32Y, Y33T, D35H, P61A, G62D, G66S, R110Q
VL: B1 VL with Y32N, Q101G
B21: VRDN-03134 (antibody, V domains shown)
VH: EVQLVESGGGVVQPGRSLRLSCAASGFTFSSYSMHWVRQAPGKGLEWVAVIWYDGSSKYYADSVKSRFTISRDNSKNTLYLQMNSLRAEDTAVYYCARELGRRYFDIWGQGTLVTVSS
VL: B1 VL with Y32N, Q101G
B22: VRDN-03125 (antibody, V domains shown)
VH: B21 VH with S30D, S31D, S33A, S66G
VL: B1 VL
B23: VRDN-03131 (antibody, V domains shown)
VH: B21 VH with V50I, Y53F, S57E, A61V
VL: B1 VL with Y32N, Q101G
B24: VRDN-03137 (antibody, V domains shown)
VH: B21 VH with S30D, S31D, S33A, S66G
VL: B1 VL with Y32N, Q101G
B25: VRDN-03133 (antibody, V domains shown)
VH: B21 VH with Q110R
VL: B1 VL with Y32N, Q101G
B26: VRDN-03136 (antibody, V domains shown)
VH: B21 VH with S30D, S31D, S33T, V50I, Y53F, S66G
VL: B1 VL with Y32N, Q101G
B27: VRDN-03129 (antibody, V domains shown)
VH: B21 VH with V50I, Y53F, S57N
VL: B1 VL with Y32N, Q101G
B28: VRDN-03138 (antibody, V domains shown)
VH: B21 VH with S30D, S31D, S33T, S66G
VL: B1 VL with Y32N, Q101G
B29: VRDN-03118 (antibody, V domains shown)
VH: B21 VH with V50I, Y53F, A61V
VL: B1 VL
B30: VRDN-03117 (antibody, V domains shown)
VH: B21 VH with V50I, Y53F, S57N
VL: B1 VL
B31: VRDN-03123 (antibody, V domains shown)
VH: B21 VH with S30D, S31D, S33A, V50I, Y53F, S66G
VL: B1 VL
B32: VRDN-03122 (antibody, V domains shown)
VH: B21 VH
VL: B1 VL
B33: VRDN-03135 (antibody, V domains shown)
VH: B21 VH with S30D, S31D, S33A, V50I, Y53F, S66G
VL: B1 VL with Y32N, Q101G
B34: VRDN-03091 (antibody, V domains shown)
VH: B2 VH with E3Q, Q18L, F95Y, S115T
VL: EIVLTQSPATLSLSPGERATLSCGASQSVSSSYLAWYQQKPGQAPRLLIYDASKRATGIPARFSGSGSGTDFTLTISSLEPEDFAVYYCQQRSKWPPWTFGQGTKVEIK
B35: VRDN-03089 (antibody, V domains shown)
VH: B2 VH with E3Q, Q18L, F95Y, S115T
VL: B34 VL with G24R

These binders were tested against Recombinant human his-tagged IGF 1R extracellular domain protein (human) (UniProt P08069) (assay: SPR, captured antibody, dissociation at pH 6).

Binder | Kd [nM] | koff [s⁻¹] | kon [M⁻¹ s⁻¹]
B1 | 1.21 | 0.000297 | 246000
B2 | 1.4 | 0.000115 | 82000
B3 | 0.624 | 5.02e-05 | 80500
B4 | 1.87 | 0.000159 | 84800
B5 | 3.79 | 0.000217 | 57300
B6 | 14.3 | 0.00563 | 394000
B7 | 1.2 | 9.44e-05 | 78400
B8 | 0.556 | 3.61e-05 | 65000
B9 | 18.2 | 0.0253 | 1.39e+06

What follows are binders tested against Recombinant human his-tagged IGF 1R extracellular domain protein (human) (UniProt P08069) (assay: SPR, captured antibody, pH 7.4).

Binder | Kd [nM] | koff [s⁻¹] | kon [M⁻¹ s⁻¹]
B10 | 8.7 | 0.00297 | 341000
B11 | 1.84 | 0.000157 | 85200
B12 | 2.72 | 0.000275 | 101000
B13 | 3.96 | 0.00128 | 322000
B14 | 7.3 | 0.00241 | 331000
B15 | 10.1 | 0.004 | 395000
B16 | 4.3 | 0.00091 | 212000
B17 | 4.27 | 0.000486 | 114000
B18 | 9.78 | 0.00153 | 157000
B19 | 0.573 | 7.48e-05 | 131000
B20 | 2.46 | 0.000262 | 107000
B21 | 4.89 | 0.0012 | 245000
B22 | 8.61 | 0.00292 | 339000
B23 | 16.2 | 0.00141 | 86900
B24 | 15.1 | 0.0142 | 940000
B25 | 6.51 | 0.00228 | 350000
B26 | 2.84 | 0.000253 | 89100

Binder | Kd [nM] | koff [s⁻¹] | kon [M⁻¹ s⁻¹]
B27 | 11 | 0.00709 | 646000
B28 | 8.75 | 0.00433 | 495000
B29 | 1.08 | 0.000107 | 98600
B30 | 8.1 | 0.00391 | 483000
B31 | 1.43 | 9.19e-05 | 64200
B32 | 4.09 | 0.000455 | 111000
B33 | 4.06 | 0.000414 | 102000
B2 | 1.72 | 0.000167 | 96900
B3 | 1.29 | 0.000135 | 105000
B4 | 1.58 | 0.000162 | 103000
B5 | 1.96 | 0.000192 | 98400
B6 | 11.3 | 0.00332 | 294000
B34 | 11 | 0.00902 | 819000
B35 | 236 | 0.0173 | 73300
B7 | 1.53 | 0.000172 | 112000
B8 | 3.16 | 0.0003 | 94900
B9 | 22.4 | 0.0111 | 493000
